Experimental data: US20210139548A1 (published 2021)
*1 amine or outer side, *2 acyl side, *3 side chain or, on linkers, in order; H or OH if unused. Side-chain parts run from the residue outwards. The star is where a group is joined. C18 diacid = O=C(O)CCCCCCCCCCCCCCCCC(=O)*; γGlu = O=C(O)[C@H](CCC(=O)[*:2])N[*:1]; Isovaleryl = CC(C)CC(=O)*; AEEA = NCCOCCOCC(=O)O

T1: human neuropeptide Y2 receptor (human, UniProt P49146 1-381)
T1 construct: whole, on cells; also called hNPY2 receptor; hNPY2-R
T1 sequence (looked up): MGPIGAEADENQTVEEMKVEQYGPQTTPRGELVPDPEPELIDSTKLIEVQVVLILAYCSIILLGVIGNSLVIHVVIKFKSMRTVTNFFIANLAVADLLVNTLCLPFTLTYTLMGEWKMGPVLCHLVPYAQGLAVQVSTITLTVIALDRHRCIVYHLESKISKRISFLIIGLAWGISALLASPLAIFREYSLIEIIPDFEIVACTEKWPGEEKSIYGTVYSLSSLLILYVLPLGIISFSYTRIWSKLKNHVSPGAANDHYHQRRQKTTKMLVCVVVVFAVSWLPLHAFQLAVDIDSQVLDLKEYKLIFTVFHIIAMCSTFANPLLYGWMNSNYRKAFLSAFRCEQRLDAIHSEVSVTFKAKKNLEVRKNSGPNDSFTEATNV


These binders were tested against T1, human neuropeptide Y2 receptor (assay: radioligand competition (125I-PYY(1-36)), hNPY2R membranes).
Outline: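 Commercial human Y2 receptor membranes (0.5 μg protein/well) were incubated with peptide for 2 h at room temperature in 50 mM HEPES, 5 mM MgCl₂, 1 mM CaCl₂, pH 7.4, with 0.2% ovalbumin. Bound radioligand was separated on PEI-soaked GF/C filters and counted by scintillation, and IC₅₀ came from nonlinear sigmoidal regression.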

Binder	Ki [nM]
Isovaleryl-APEK([AEEA-AEEA-γGlu-C18 diacid])PEEAAEPEELQRYYVSLRHYYNWLTRQRY-NH2 (SMILES CC(C)CC(=O)N[C@@H](C)C(=O)N1CCC[C@H]1C(=O)N[C@@H](CCC(=O)O)C(=O)N[C@@H](CCCCNC(=O)COCCOCCNC(=O)COCCOCCNC(=O)CC[C@H](NC(=O)CCCCCCCCCCCCCCCCC(=O)O)C(=O)O)C(=O)N1CCC[C@H]1C(=O)N[C@@H](CCC(=O)O)C(=O)N[C@@H](CCC(=O)O)C(=O)N[C@@H](C)C(=O)N[C@@H](C)C(=O)N[C@@H](CCC(=O)O)C(=O)N1CCC[C@H]1C(=O)N[C@@H](CCC(=O)O)C(=O)N[C@@H](CCC(=O)O)C(=O)N[C@@H](CC(C)C)C(=O)N[C@@H](CCC(N)=O)C(=O)N[C@@H](CCCNC(=N)N)C(=O)N[C@@H](Cc1ccc(O)cc1)C(=O)N[C@@H](Cc1ccc(O)cc1)C(=O)N[C@H](C(=O)N[C@@H](CO)C(=O)N[C@@H](CC(C)C)C(=O)N[C@@H](CCCNC(=N)N)C(=O)N[C@@H](Cc1c[nH]cn1)C(=O)N[C@@H](Cc1ccc(O)cc1)C(=O)N[C@@H](Cc1ccc(O)cc1)C(=O)N[C@@H](CC(N)=O)C(=O)N[C@@H](Cc1c[nH]c2ccccc12)C(=O)N[C@@H](CC(C)C)C(=O)N[C@H](C(=O)N[C@@H](CCCNC(=N)N)C(=O)N[C@@H](CCC(N)=O)C(=O)N[C@@H](CCCNC(=N)N)C(=O)N[C@@H](Cc1ccc(O)cc1)C(N)=O)[C@@H](C)O)C(C)C) [Compound 223]	4.77
Isovaleryl-APEK([AEEA-AEEA-γGlu-C18 diacid])PGEEASPEELEQYYVSLRHYYNWLTRQRY-NH2 (SMILES CC(C)CC(=O)N[C@@H](C)C(=O)N1CCC[C@H]1C(=O)N[C@@H](CCC(=O)O)C(=O)N[C@@H](CCCCNC(=O)COCCOCCNC(=O)COCCOCCNC(=O)CC[C@H](NC(=O)CCCCCCCCCCCCCCCCC(=O)O)C(=O)O)C(=O)N1CCC[C@H]1C(=O)NCC(=O)N[C@@H](CCC(=O)O)C(=O)N[C@@H](CCC(=O)O)C(=O)N[C@@H](C)C(=O)N[C@@H](CO)C(=O)N1CCC[C@H]1C(=O)N[C@@H](CCC(=O)O)C(=O)N[C@@H](CCC(=O)O)C(=O)N[C@@H](CC(C)C)C(=O)N[C@@H](CCC(=O)O)C(=O)N[C@@H](CCC(N)=O)C(=O)N[C@@H](Cc1ccc(O)cc1)C(=O)N[C@@H](Cc1ccc(O)cc1)C(=O)N[C@H](C(=O)N[C@@H](CO)C(=O)N[C@@H](CC(C)C)C(=O)N[C@@H](CCCNC(=N)N)C(=O)N[C@@H](Cc1c[nH]cn1)C(=O)N[C@@H](Cc1ccc(O)cc1)C(=O)N[C@@H](Cc1ccc(O)cc1)C(=O)N[C@@H](CC(N)=O)C(=O)N[C@@H](Cc1c[nH]c2ccccc12)C(=O)N[C@@H](CC(C)C)C(=O)N[C@H](C(=O)N[C@@H](CCCNC(=N)N)C(=O)N[C@@H](CCC(N)=O)C(=O)N[C@@H](CCCNC(=N)N)C(=O)N[C@@H](Cc1ccc(O)cc1)C(N)=O)[C@@H](C)O)C(C)C) [Compound 224]	4.64
Isovaleryl-APEK([AEEA-AEEA-γGlu-C18 diacid])PEEAASPEETQRYYVSLRHYYNWLTRQRY-NH2 (SMILES CC(C)CC(=O)N[C@@H](C)C(=O)N1CCC[C@H]1C(=O)N[C@@H](CCC(=O)O)C(=O)N[C@@H](CCCCNC(=O)COCCOCCNC(=O)COCCOCCNC(=O)CC[C@H](NC(=O)CCCCCCCCCCCCCCCCC(=O)O)C(=O)O)C(=O)N1CCC[C@H]1C(=O)N[C@@H](CCC(=O)O)C(=O)N[C@@H](CCC(=O)O)C(=O)N[C@@H](C)C(=O)N[C@@H](C)C(=O)N[C@@H](CO)C(=O)N1CCC[C@H]1C(=O)N[C@@H](CCC(=O)O)C(=O)N[C@@H](CCC(=O)O)C(=O)N[C@H](C(=O)N[C@@H](CCC(N)=O)C(=O)N[C@@H](CCCNC(=N)N)C(=O)N[C@@H](Cc1ccc(O)cc1)C(=O)N[C@@H](Cc1ccc(O)cc1)C(=O)N[C@H](C(=O)N[C@@H](CO)C(=O)N[C@@H](CC(C)C)C(=O)N[C@@H](CCCNC(=N)N)C(=O)N[C@@H](Cc1c[nH]cn1)C(=O)N[C@@H](Cc1ccc(O)cc1)C(=O)N[C@@H](Cc1ccc(O)cc1)C(=O)N[C@@H](CC(N)=O)C(=O)N[C@@H](Cc1c[nH]c2ccccc12)C(=O)N[C@@H](CC(C)C)C(=O)N[C@H](C(=O)N[C@@H](CCCNC(=N)N)C(=O)N[C@@H](CCC(N)=O)C(=O)N[C@@H](CCCNC(=N)N)C(=O)N[C@@H](Cc1ccc(O)cc1)C(N)=O)[C@@H](C)O)C(C)C)[C@@H](C)O) [Compound 226]	1.21
Isovaleryl-APEK([AEEA-AEEA-γGlu-C18 diacid])AEEDASPEELEQYYVSLRHYYNWLTRQRY-NH2 (SMILES CC(C)CC(=O)N[C@@H](C)C(=O)N1CCC[C@H]1C(=O)N[C@@H](CCC(=O)O)C(=O)N[C@@H](CCCCNC(=O)COCCOCCNC(=O)COCCOCCNC(=O)CC[C@H](NC(=O)CCCCCCCCCCCCCCCCC(=O)O)C(=O)O)C(=O)N[C@@H](C)C(=O)N[C@@H](CCC(=O)O)C(=O)N[C@@H](CCC(=O)O)C(=O)N[C@@H](CC(=O)O)C(=O)N[C@@H](C)C(=O)N[C@@H](CO)C(=O)N1CCC[C@H]1C(=O)N[C@@H](CCC(=O)O)C(=O)N[C@@H](CCC(=O)O)C(=O)N[C@@H](CC(C)C)C(=O)N[C@@H](CCC(=O)O)C(=O)N[C@@H](CCC(N)=O)C(=O)N[C@@H](Cc1ccc(O)cc1)C(=O)N[C@@H](Cc1ccc(O)cc1)C(=O)N[C@H](C(=O)N[C@@H](CO)C(=O)N[C@@H](CC(C)C)C(=O)N[C@@H](CCCNC(=N)N)C(=O)N[C@@H](Cc1c[nH]cn1)C(=O)N[C@@H](Cc1ccc(O)cc1)C(=O)N[C@@H](Cc1ccc(O)cc1)C(=O)N[C@@H](CC(N)=O)C(=O)N[C@@H](Cc1c[nH]c2ccccc12)C(=O)N[C@@H](CC(C)C)C(=O)N[C@H](C(=O)N[C@@H](CCCNC(=N)N)C(=O)N[C@@H](CCC(N)=O)C(=O)N[C@@H](CCCNC(=N)N)C(=O)N[C@@H](Cc1ccc(O)cc1)C(N)=O)[C@@H](C)O)C(C)C) [Compound 227]	12.3
Isovaleryl-APEK([AEEA-AEEA-γGlu-C18 diacid])PEEDASPEELQRYYVSARHYYNWLTRQRY-NH2 (SMILES CC(C)CC(=O)N[C@@H](C)C(=O)N1CCC[C@H]1C(=O)N[C@@H](CCC(=O)O)C(=O)N[C@@H](CCCCNC(=O)COCCOCCNC(=O)COCCOCCNC(=O)CC[C@H](NC(=O)CCCCCCCCCCCCCCCCC(=O)O)C(=O)O)C(=O)N1CCC[C@H]1C(=O)N[C@@H](CCC(=O)O)C(=O)N[C@@H](CCC(=O)O)C(=O)N[C@@H](CC(=O)O)C(=O)N[C@@H](C)C(=O)N[C@@H](CO)C(=O)N1CCC[C@H]1C(=O)N[C@@H](CCC(=O)O)C(=O)N[C@@H](CCC(=O)O)C(=O)N[C@@H](CC(C)C)C(=O)N[C@@H](CCC(N)=O)C(=O)N[C@@H](CCCNC(=N)N)C(=O)N[C@@H](Cc1ccc(O)cc1)C(=O)N[C@@H](Cc1ccc(O)cc1)C(=O)N[C@H](C(=O)N[C@@H](CO)C(=O)N[C@@H](C)C(=O)N[C@@H](CCCNC(=N)N)C(=O)N[C@@H](Cc1c[nH]cn1)C(=O)N[C@@H](Cc1ccc(O)cc1)C(=O)N[C@@H](Cc1ccc(O)cc1)C(=O)N[C@@H](CC(N)=O)C(=O)N[C@@H](Cc1c[nH]c2ccccc12)C(=O)N[C@@H](CC(C)C)C(=O)N[C@H](C(=O)N[C@@H](CCCNC(=N)N)C(=O)N[C@@H](CCC(N)=O)C(=O)N[C@@H](CCCNC(=N)N)C(=O)N[C@@H](Cc1ccc(O)cc1)C(N)=O)[C@@H](C)O)C(C)C) [Compound 229]	2.84
Isovaleryl-APAK([AEEA-AEEA-γGlu-C18 diacid])PPEDASPEELQRYYVELRHYYNWLTRQRY-NH2 (SMILES CC(C)CC(=O)N[C@@H](C)C(=O)N1CCC[C@H]1C(=O)N[C@@H](C)C(=O)N[C@@H](CCCCNC(=O)COCCOCCNC(=O)COCCOCCNC(=O)CC[C@H](NC(=O)CCCCCCCCCCCCCCCCC(=O)O)C(=O)O)C(=O)N1CCC[C@H]1C(=O)N1CCC[C@H]1C(=O)N[C@@H](CCC(=O)O)C(=O)N[C@@H](CC(=O)O)C(=O)N[C@@H](C)C(=O)N[C@@H](CO)C(=O)N1CCC[C@H]1C(=O)N[C@@H](CCC(=O)O)C(=O)N[C@@H](CCC(=O)O)C(=O)N[C@@H](CC(C)C)C(=O)N[C@@H](CCC(N)=O)C(=O)N[C@@H](CCCNC(=N)N)C(=O)N[C@@H](Cc1ccc(O)cc1)C(=O)N[C@@H](Cc1ccc(O)cc1)C(=O)N[C@H](C(=O)N[C@@H](CCC(=O)O)C(=O)N[C@@H](CC(C)C)C(=O)N[C@@H](CCCNC(=N)N)C(=O)N[C@@H](Cc1c[nH]cn1)C(=O)N[C@@H](Cc1ccc(O)cc1)C(=O)N[C@@H](Cc1ccc(O)cc1)C(=O)N[C@@H](CC(N)=O)C(=O)N[C@@H](Cc1c[nH]c2ccccc12)C(=O)N[C@@H](CC(C)C)C(=O)N[C@H](C(=O)N[C@@H](CCCNC(=N)N)C(=O)N[C@@H](CCC(N)=O)C(=O)N[C@@H](CCCNC(=N)N)C(=O)N[C@@H](Cc1ccc(O)cc1)C(N)=O)[C@@H](C)O)C(C)C) [Compound 232]	0.81
